What was measured:
[1] = biological target: T1, Histidine-tagged human Siglec-7 (NovoProtein) (human, UniProt Q9Y286 19-357, limits assumed); assay: SPR (BiaCore T200, 25 C), antibody captured on anti-mouse IgG, Siglec-7-His 25 nM, single-concentration kinetics
T1 construct: Bought protein; also called purified Siglec-7-his tagged protein; not shown: histidine tag
Procedure: (§1) SPR data was collected at a rate of 10 Hz at 25′ C on a BiaCore T200 instrument. Data analysis was performed using BiaCore T200 Evaluation Software, version 2.0. HBS-EP+ (100 mM HEPES, 1.5 M NaCl, 30 mM EDTA, 0.5% v/v Surfactant P20, pH 7.4) was used as running buffer and for preparing reagents.
(§2) Mouse-derived antibodies (25 nM) against Siglec-7 were captured (60 s contact time, 30 μL/min flow rate, 0 s stabilization time) on a CM5 sensor chip (GE Healthcare) immobilized with anti-mouse IgG. Histidine-tagged human Siglec-7 (NovoProtein) was then flowed over the captured anti-Siglec-7 surface (120 s contact time, 30 μL/min flow rate, 300 s dissociation time). Concentration of antigen ranged from 5 nM to 100 nM, depending on information obtained from an initial screen. Duplicate single-concentration trials were performed and bracketed by a blank (0 nM antigen) sample. The chip surface was regenerated in between cycles using 10 mM glycine-HCl, pH1.7 (60 s contact time, 30 μL/min flow rate, 60 s stabilization time). The resulting SPR signal was obtained as the difference in response from measurements performed on a blank flow cell.
(§3) Affinity constants (KD) were calculated from the ratio kd/kₐ. For one antibody (clone 1E8), we validated the single-concentration analysis with a multiple-concentration approach (five concentrations of antigen used, plus one blank).

[2] = biological target: T2, human Siglec-7 expressed on human cells (primary monocytes, dendritic cells, macrophages, NK cells, … (human, UniProt Q9Y286 19-467)); assay: FACS, human primary macrophages, 10 ug/ml mAb
T2 construct: Endogenous receptor on cells; also called Siglec-7 receptor
T2 sequence (Q9Y286 19-467): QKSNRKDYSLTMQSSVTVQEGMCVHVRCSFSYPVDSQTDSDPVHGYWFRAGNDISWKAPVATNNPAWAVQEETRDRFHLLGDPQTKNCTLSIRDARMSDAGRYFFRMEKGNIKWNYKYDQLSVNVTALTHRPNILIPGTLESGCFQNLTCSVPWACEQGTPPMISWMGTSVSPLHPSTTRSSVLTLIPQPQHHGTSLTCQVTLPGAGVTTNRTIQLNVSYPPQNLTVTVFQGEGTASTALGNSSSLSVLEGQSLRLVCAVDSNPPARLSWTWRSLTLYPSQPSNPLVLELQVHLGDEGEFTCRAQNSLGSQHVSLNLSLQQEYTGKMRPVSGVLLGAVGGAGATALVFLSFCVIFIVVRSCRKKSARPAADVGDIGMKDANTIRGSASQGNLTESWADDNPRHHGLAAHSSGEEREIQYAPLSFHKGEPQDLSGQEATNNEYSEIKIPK
Procedure: (§4) Initial characterization of Siglec-7 antibodies involved determining their ability to bind Siglec-7 expressed on human primary monocytes, human primary macrophages, human primary dendritic cells, human primary neutrophils, and human primary natural killer (NK) cells. Cells were harvested, plated at 10⁶/ml in a 96 well plate, and incubated in 100 ul PBS containing 2% FBS, 2 mM EDTA and 10 μg/ml Mab and Fc blocking reagent for 1 hour in ice. Cells were washed twice and incubated in 100 ul PBS containing 2% FBS, 2 mM EDTA and 5 ug/ml PE-conjugated secondary antibody for 30 minutes on ice. Cells were washed twice in cold PBS and analyze by flow cytometry on a BD FACS Canto. Data analysis and calculation of MFI values was performed with FlowJo (TreeStar) software version 10.0.7.
(§5) Percent positive binding and mean fluorescent intensity (MFI) values for cell types bound by Siglec-7 antibodies are listed in Table 4A. Binding is compared to an isotype control. The antibodies bind to human primary monocytes, human primary dendritic cells, and human primary macrophages. In Table 4A, “Buffer” refers to cells that were treated only with the PBS buffer described supra; “Secondary Ab” refers to cells that were treated only with the PE-conjugated secondary antibody; “mIgG1,” “mIgG2a,” and “mIgG2b” refer to isotype control antibodies; and “RDS7” refers to commerically available anti-Siglec-7 antibody Mab1138 (R&D Systems; Cat. No. MAB 1138).

[3] = biological target: T3, Siglec-7-Fc (plate immobilized) (human, UniProt Q9Y286 19-357, limits assumed); assay: RBC solid adhesion assay, plate-coated Siglec-7-Fc, antibody 0.5 or 1.0 ug/ml; % of RBC binding without antibody
T3 construct: also called Siglec-7-Fc protein; immobilized Siglec-7; not shown: Fc part
T3 sequence (Q9Y286 19-357 limits assumed): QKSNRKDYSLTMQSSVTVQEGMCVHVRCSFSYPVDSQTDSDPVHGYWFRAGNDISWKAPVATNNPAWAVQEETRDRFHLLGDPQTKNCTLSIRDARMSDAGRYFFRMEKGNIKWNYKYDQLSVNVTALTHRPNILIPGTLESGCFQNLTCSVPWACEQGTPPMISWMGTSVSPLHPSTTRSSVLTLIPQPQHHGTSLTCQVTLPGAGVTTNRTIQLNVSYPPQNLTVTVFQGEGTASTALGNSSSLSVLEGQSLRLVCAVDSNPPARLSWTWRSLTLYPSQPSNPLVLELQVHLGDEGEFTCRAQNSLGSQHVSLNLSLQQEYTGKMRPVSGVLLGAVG
Procedure: To determine which antibodies compete with ligand binding to Siglec-7, a red blood cell (RBC) solid adhesion assay was carried out in accordance with standard protocols (Kelm et al., Current Biology, 1994). Red blood cells are highly decorated with glycoproteins containing sialic acids: therefore, the ability of an antibody to block RBC binding to immobilized Siglec-7 can be used to determine ligand interference. Briefly, 5 μg/ml Siglec-7-Fc was coated overnight at RT in 96 well Immunolon plates, then washed with PBS, blocked for one hour with binding buffer (PBS containing %0.25 BSA 1 mM CaCl₂), Siglec-7 antibodies (0.5 μg/ml or 1.0 μg/ml) were bound for one hour at RT with gentle rocking. After removal of unbound antibody, red blood cells were added to each well at a concentration of 3.0×10⁶ cells per ml and incubated at RT for one hour. Unbound RBCs were then carefully washed off 3× with PBS, and water was added to each well for hypotonic lysis of bound RBCs. The plate was transferred to −80° C. for 10 minutes, followed by 37° C. for 15 minutes. Bound RBCs were detected by peroxidase activity, followed by 2N sulfuric acid to stop the reaction. Signal was detected at […]. Data was calculated as a percent of RBC binding to plate bound Siglec-7-Fc in the absence of antibody.

[4] = biological target: T2, human Siglec-7 expressed on human cells …; assay: cell-based or functional assay
[5] = biological target: T2, human Siglec-7 expressed on human cells …; assay: FACS titration on primary human dendritic cells, donor 359, 4 C
Procedure: (§6) Two Siglec-7 antibodies, 4E3 and 10B5, were titrated 2-fold for a 12-point curve with a concentration range of 6.67-0.00325 nM to assess binding and calculate half-maximal concentration (EC₅₀) for binding to primary human dendritic cells (FIG. 5B). Antibodies were serially diluted and incubated with cells in PBS with 1% BSA, 1 mM EDTA for 1 hour on ice (4° C.). Cells were pelleted and resuspended with goat anti-mouse secondary antibody conjugated with APC (BD Biosciences) at a 1:200 dilution in buffer. Secondary detection antibody was incubated for 30 minutes on ice (4° C.), then cells were washed 3 times in buffer before analyzing on a BD FACS Canto for APC MR. Data were analyzed with FlowJo Software (TreeStar).

[6] = biological target: T2, human Siglec-7 expressed on human cells …; assay: FACS, human primary monocytes, 10 ug/ml mAb
Procedure: as §4, §5

[7] = biological target: T2, human Siglec-7 expressed on human cells …; assay: FACS titration on primary human dendritic cells, donor 358, 4 C
Procedure: as §6

[8] = biological target: T2, human Siglec-7 expressed on human cells …; assay: cell-based or functional assay; remark: listed apart in the source
[9] = biological target: T2, human Siglec-7 expressed on human cells …; assay: cell-based or functional assay; remark: listed apart in the source
[10] = biological target: T2, human Siglec-7 expressed on human cells …; assay: FACS, human primary dendritic cells, 10 ug/ml mAb
Procedure: as §4, §5

[11] = biological target: T1, Histidine-tagged human Siglec-7 …; assay: SPR (BiaCore T200, 25 C), antibody captured on anti-mouse IgG, Siglec-7-His 20 nM, single-concentration kinetics
Procedure: as §1, §2, §3

[12] = biological target: T1, Histidine-tagged human Siglec-7 …; assay: SPR (BiaCore T200, 25 C), antibody captured on anti-mouse IgG, Siglec-7-His 35 nM, single-concentration kinetics
Procedure: as §1, §2, §3

T1 sequence (Q9Y286 19-357 limits assumed): as above

Binder | Kd [1] | % Positive [2] | MFI [2] | Percent RBC Binding to Siglec-7 [3] | Percent Siglec-7 Surface Expression, DCs [4] | Percent Siglec-7 Surface Expression, Monocytes [4] | Percent Siglec-7 Surface Expression, U937 cells [4] | % Positive [6] | MFI [6] | Percent Siglec-7 Surface Expression, Macrophages [8] | Percent Siglec-7 Surface Expression, Microglia [8] | Percent Siglec-7 Surface Expression, NK cells [8] | % Positive [10] | MFI [10] | Kd [11] | further results
anti-Siglec-7 antibody 4E3 (antibody, V domains shown, VL FR1 there holds a Z); also called S7-4E3; mAb S7-4E3) VH: EVQLVESGGALVKPGGSLKISCAVSGFIFSNYDMSWVRQNPEKRLEWVATISSGGGYTYYPDSVKGRFTISRDNAKNALYLQMSSLRSEDTALYYCTRHGYGNYDWYFDVWGAGATVTVSS VL: QIVLTQSPAILSASPGEKVTMTCSANSSFTYMYWYQQKPGSSPRLLIFDTSNLASGVPIRFSGSGSGTSYSLTISRMEAEDTATYYCQQWSSSPLTFGAGTKLELK | 0.3 nM | 99.6% | 4150 | 20.2% | 11.2% | 15.1% | 30.8% | 98.6% | 362 | 4.2% | 20.9% | 31.2% | 99.7% | 2650 |  | EC50 [5]: 0.301 nM; EC50 [7]: 0.336 nM; EC50 of Siglec-7 cell surface downregulation, primary human dendritic cells, donor 362 [9]: 0.114 nM; EC50 of Siglec-7 cell surface downregulation, primary human dendritic cells, donor 363 [9]: 0.095 nM; EC50 of Siglec-7 cell surface downregulation, primary human dendritic cells, donor 364 [9]: 0.0499 nM; EC50 of Siglec-7 cell surface downregulation, primary human dendritic cells, donor 365 [9]: 0.0336 nM
anti-Siglec-7 antibody 4A1 (antibody, V domains shown, Variable domains assembled from FR and CDR entries) VH: QVQLQQSGSELRSPGSSVKLSCKDFDSEVFPITYMNWVRQKPGHGFEWIGDILPSIGRTMYGEKFEDKATLDADTVSNTAYLELNSLTSEDSAIYYCARSEGYLLAYWGQGTLVTVSA VL: DVVMTQTPLSLPVSLGDQASISCRSSQSLVHSTGNIYLHWYLQKPGQSPKLLIYKVSNRFZGVPDRFSGSGSGTDFTLKISRVEAEDLGVYFCSQNTHVPYTFGGGTKLEIK |  | 99.3% | 14600 | 11.2% | 99.6% | 39.8% | 89.5% | 99.4% | 486 | 13.1% | 26.3% | 132% | 99.7% | 5450 |  | Kd [12]: 0.3 nM
anti-Siglec-7 antibody 7A3 (antibody, V domains shown, Variable domains assembled from FR and CDR entries; VL FR1 and VH FR1 hold Z and VH FR1 looks shortened at its N-terminus) VH: LVZSGGALVKPGGSLKLSCAASGFTFSNYAMSWVRQTPEKRLEWVASISSGGSYNYYPDSVKGRFTISRDNARNTLYLQMSSLRSKDTAMYYCASQSYGSSYWYFDVWGAGTTVTVSS VL: DIQMTQZPATLSVTPGDRVSLSCRASQSISEYLHWYHQKSHESPRLLIKFASQSICGIPSRFSGSGSGSDFTLTINSVEPEDVGVYYCQNGHNFPYTFGGGTKLEIK |  | 99.7% | 2840 | 89.5% | 11% | 23.7% | 76.3% | 97.9% | 407 | 8.3% |  | 77.1% | 99.7% | 956 | 1 nM | 

More lines, main results first:

Kd [1] | % Positive [2] | MFI [2] | Percent RBC Binding to Siglec-7 [3] | Percent Siglec-7 Surface Expression, DCs [4] | Percent Siglec-7 Surface Expression, Monocytes [4] | Percent Siglec-7 Surface Expression, U937 cells [4] | % Positive [6] | MFI [6] | Percent Siglec-7 Surface Expression, Macrophages [8] | Percent Siglec-7 Surface Expression, Microglia [8] | Percent Siglec-7 Surface Expression, NK cells [8] | % Positive [10] | MFI [10] | Kd [11] | Binder | further results
 | 99.5% | 25700 | 14.5% | 1100% | 140% | 121% | 99.4% | 577 | 95.7% | 106% | 114% | 99.7% | 10200 | 0.1 nM | anti-Siglec-7 antibody 2G1 (antibody, V domains shown, Variable domains assembled from FR and CDR entries; the printed VL FR1 looks shortened at its N-terminus; also called 2G11 (misprint in text)) VH: EVKLVESGGTLVKPGGSLKISCAASGFTFSNYDMSWVRQNPEKRLEWVATISSGGDYTYYPDIFKGRFTISRDDAKNALYLQMSSLRSEDTALYYCARHGYGNYDWYFDVWGAGATVTVSS VL: VLTQSPAIMSASPGEKVTMTCSANSSFIYMYWYQQKPGSSPRLLIFDTSNLASGVPIRFSGSGSGTSYSLTISRMEAEDTATYYCQQWSSSPLTFGGGTKLELK | 
1 nM | 99.6% | 4040 | 26.8% | 19.9% | 23.9% | 82.4% | 98.7% | 380 | 7.4% | 34.2% | 108% | 99.6% | 2520 |  | anti-Siglec-7 antibody 3E11 (antibody, V domains shown, Variable domains assembled from FR and CDR entries) VH: QVQLQQSGAELARPGASVKLSCKASGYIFTDYGITWVKQRTGQGLEWIGEISPRSGETYFNENYRVKATLTADKSSSTAYMQLFSLTSEDSAVYFCAREGNPFTYWGHGTLVTVSA VL: DVZMTQTPLSLPVSLGDQASISCRSSQSLVHSTGNTYLHWYLQKPGQSPKLLIYKVSNRFCGVPDRFSGSGAGTDFTLKISRVEAEDLGVYFCSQNTHVPYTFGGGTKLEIK | 

Reference: patent US20200277374A1 (Alector, published 2020)
